Results from publication PMC11234873 (Chemical Science, 2024).

Test: High-throughput protein phase separation
Format: physicochemical
Details: 25 μM Hsp90α; 96 LLPS-inducing conditions, sum of averaged grades of 15 subzones

Substance: Hsp90α: full-length human Hsp90α (UniProt P07900), N-terminal 6×-His tag, expressed in E. coli
- phase separation score (PPS score): 3.1
